In patent publication US20250092154A1 (UCI THERAPEUTICS, published 2025):

B1: mesothelin-specific scFv #19 (purified from E. coli) (scFv)
scFv: DIVITQSPAIMSASPGEKVTMTCSASSSVSYMHWYQQKSGTSPKRWIYDTSKLASGVPARFSGSGSGTSYSLTISSMEAEDAATYYCQQWSSNPLTFGAGTKLEIKRGGGGSGGGGSGGGGSQVQLQQSGPELVKPGASVKISCKASGYSFTDYNMNWVKQSNGKSLEWIGVINPNYGTTSYNQKFKGKATITADTSSNTAYLQLSSLTSEDSAVYYCAKGDYDGAGFAYWGQGTLVTVSA
notes: also called mouse scFv #19; anti-MSLN scFv; not shown: His tag (Ni-NTA purification, anti-HISx6 detection) and any other pmopac12 vector tag
B2: humanized antibody #19-1 (#19-1 scFv-Fc) (Fc fusion)
scFv: EIVLTQSPATLSLSPGERATLSCSASSSVSYMHWYQQKPGQAPRLLIYDTSKLASGIPARFSGSGSGTDFTLTISSLEPEDFAVYYCQQWSSNPLTFGQGTKLEIKRGGGGSGGGGSGGGGSQVQLVQSGAEVKKPGASVKVSCKASGYTFTDYNMNWVRQAPGQGLEWMGVINPNYGTTSYNQKFKGRVTMTRDTSTSTVYMELSSLRSEDTAVYYCARGDYDGAGFAYWGQGTLVTVSS
notes: Expressed in ExpiCHO as #19-1 scFv-Fc and purified by protein A and SEC; also called humanized scFv #19-1; scFv antibody #19-1; not shown: Human IgG-Fc tag fused C-terminal to the scFv, and any hinge or linker to it
B3: mesothelin-specific scFv #45 (purified from E. coli) (scFv)
scFv: DIVLTQSPAIMSTSPGEKVTMTCTASSSVSYMHWYQQKSGTSPKRWIYDTSKLASGVPARFSGSGSGTSYSLTISRMEAEDAATYYCQQWSSYPLTFGAGTKLEMKRGGGGSGGGGSGGGGSQVQLQQPGAELVKPGASVKLSCKASGYTFTSYWMHWVKQRPGQGLEWIGMIHPNSGGTNYNEKFKSKATLTVDKSSSTAYMQLSSLTSEDSAVYYCARYYYGNYVWYFDVWGTGTTVTVSA
notes: also called anti-MSLN scFv; not shown: His tag (Ni-NTA purification, anti-HISx6 detection) and any other pmopac12 vector tag
B4: mesothelin-specific CAR comprising humanized scFv #19-1, on cells (293T cells; PBNK cells) (receptor)
chain: EIVLTQSPATLSLSPGERATLSCSASSSVSYMHWYQQKPGQAPRLLIYDTSKLASGIPARFSGSGSGTDFTLTISSLEPEDFAVYYCQQWSSNPLTFGQGTKLEIKRGGGGSGGGGSGGGGSQVQLVQSGAEVKKPGASVKVSCKASGYTFTDYNMNWVRQAPGQGLEWMGVINPNYGTTSYNQKFKGRVTMTRDTSTSTVYMELSSLRSEDTAVYYCARGDYDGAGFAYWGQGTLVTVSSTTTPAPRPPTPAPTIASQPLSLRPEACRPAAGGAVHTRGLDFACDIYIWAPLAGTCGVLLLSLVITLYCKRGRKKLLYIFKQPFMRPVQTTQEEDGCSCRFPEEEEGGCELRVKFSRSADAPAYKQGQNQLYNELNLGRREEYDVLDKRRGRDPEMGGKPRRKNPQEGLYNELQKDKMAEAYSEIGMKGERRRGKGHDGLYQGLSTATKDTYDALHMQALPPR
notes: also called #19-1 CAR; MSLN-CAR

Legend:
[1] = biological target: T1, MSLN mature form-his (human, UniProt Q13421 296-598, biotinylated (site not stated) in the ELISA of Example 2; detected with SA-APC in the yeast single-clone FACS); assay: Direct-binding ELISA: scFv coated on the plate, biotinylated MSLN mature form-his titrated, streptavidin-HRP, A450; the half-maximal value is headed 'IC50 (M)' in the drawn table, row 'Mature MSLN'
T1 construct: also called mesothelin mature form-his antigen; biotinylated MSLN-his; not shown: His tag
T1 sequence (Q13421 other isoform, or with tags, fused parts or gaps limits assumed): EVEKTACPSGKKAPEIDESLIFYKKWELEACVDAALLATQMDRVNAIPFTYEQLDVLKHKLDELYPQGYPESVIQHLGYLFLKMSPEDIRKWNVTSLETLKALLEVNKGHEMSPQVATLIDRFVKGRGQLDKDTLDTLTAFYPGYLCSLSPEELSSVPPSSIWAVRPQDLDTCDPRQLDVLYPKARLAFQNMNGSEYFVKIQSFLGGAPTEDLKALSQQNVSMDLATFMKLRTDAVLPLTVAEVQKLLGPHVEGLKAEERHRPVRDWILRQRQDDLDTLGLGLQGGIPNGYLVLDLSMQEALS
Method: (§1) 100 ng of the scFv protein purified in Example 1 was added to each well of a plate and refrigerated for 15 hours, thereby coating the plate with the protein. After incubation, each well was blocked with 200 μL of PBS (3% BSA) for 1 hour at room temperature. Biotinylated MSLN-his protein was serially diluted 1/5 from 10⁻⁶ M and then bound to the anti-MSLN scFv, coated on the ELISA plate, for 1 hour at room temperature. Each well was washed three times with PBST (0.05% tween 20) wash buffer, and then treated with HRP-conjugated streptavidin (Abcam) (diluted 40,000:1) for detection of biotinylated […] and incubated at room temperature for 1 hour. Each well was washed three times with PBST (0.05% tween20) wash buffer, and then treated with TMB and incubated at room temperature for 20 minutes. After treatment with 2M H₂SO₄, the absorbance at 450 nm was measured.

[2] = biological target: T1, MSLN mature form-his; assay: Direct-binding ELISA: scFv coated on the plate, biotinylated MSLN mature form-his titrated (M), streptavidin-HRP, A450
Method: as §1

[3] = biological target: T2, recombinant human mature MSLN (SEQ ID NO: 1) (human, UniProt Q13421 296-598); assay: SPR, mature MSLN immobilized on CM5 chip, #19-1 scFv-Fc injected in two-fold dilutions, 1:1 depletion corrected binding model
T2 construct: Immobilized by amide coupling on a CM5 chip for SPR; also called mesothelin; recombinant human mesothelin protein antigen
Method: The binding affinity of the humanized antibody #19-1 purified in Example 6 to mesothelin was evaluated by surface plasmon resonance (SPR) method. First, recombinant human mature MSLN (SEQ ID NO: 1) was immobilized by an amide bond on the surface of a carboxymethyldextran (CM5) chip at densities of about 560 RU and 520 RU. Next, two-fold serial dilutions of humanized antibody #19-1 were injected at a constant flow rate. The association and dissociation rates of the protein complex (complex of humanized antibody #19-1 and mature MSLN) were monitored for 180 and 540 seconds, respectively. Referencing was performed on a blank flow cell. Finally, the binding affinity of humanized antibody #19-1 to mesothelin was determined using the 1:1 depletion corrected binding model.

[4] = biological target: T3, MSLN (ACRO) (human, UniProt Q13421, PE-conjugated (site not given)); assay: FACS of PBNK cells transduced with the #19-1 CAR, stained with PE-conjugated MSLN antigen 'MSLN (ACRO)' (B4-A vs SSC-A); also printed as 26%; Mock (empty vector) cells 0.24
T3 construct: soluble antigen, PE-conjugated; also called PE-conjugated MSLN antigen
T3 sequence (Q13421 other isoform, or with tags, fused parts or gaps limits assumed): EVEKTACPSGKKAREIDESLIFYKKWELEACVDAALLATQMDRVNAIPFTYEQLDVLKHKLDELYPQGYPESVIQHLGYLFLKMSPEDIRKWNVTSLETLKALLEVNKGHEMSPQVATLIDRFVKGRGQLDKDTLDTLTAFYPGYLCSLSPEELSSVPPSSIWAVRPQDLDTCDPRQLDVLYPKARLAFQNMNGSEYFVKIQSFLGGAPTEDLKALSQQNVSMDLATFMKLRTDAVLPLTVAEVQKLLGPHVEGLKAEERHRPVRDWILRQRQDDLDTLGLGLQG
Excerpt: A mesothelin-specific chimeric antigen receptor construct virus was produced in the same manner as in Example 8 above, and then natural killer cells were used as immune 5 effector cells to be genetically engineered to express the chimeric antigen receptor. As such natural killer cells, PBMC (Human PB MNC) cells were purchased from StemCell, cultured for 10 days, and used after differentiation into PBNK cells. PBMC and PBNK cells, as well as lentivirus-transduced PBNK cells described below, were all cultured in NK MACS medium containing 100 µg/mL of streptomycin, 100 units/mL of penicillin, 10 ng/mL of rhIL-15, and 500 IU of rhIL-2. Culture of all cells was performed in a 5% CO₂ (95% air) environment at 37° C. For expression of the mesothelin-specific CAR, 5×10⁵ PBNK cells and the produced antigen receptor construct virus with an MOI of 2 were added to a 24-well plate, and then for induction of transduction, PGE2 (prostaglandin E2) and LentiBOOST (lentiviral gene transfer inducer) were used, thereby generating NK cells expressing the mesothelin-specific CAR. […]

[5] = biological target: T4, biotinylated mesothelin of SEQ ID NO: 1 (human, UniProt Q13421 296-598, biotinylated (site not stated)); assay: FACS of 293T cells transduced with the #19-1 CAR, biotinylated mature mesothelin plus PE-streptavidin (B4-A vs SSC-A)
T4 construct: also called biotinylated mature form of the mesothelin antigen
Method: The generated cells were cultured for 2 days. […] Then, biotin was fluorescently labeled using PE-conjugated streptavidin protein and FACS analysis was performed.

IC50 [1] [nM] | EC50 (read off the curve) [2] [nM] | Kd [3] [nM] | % Parent in gate P24 [4] [%] | % Parent in gate P4 (cells binding 'Mature MSLN') [5] [%] | Binder
2.43 | ~3 |  |  |  | B1
 |  | 80.8 |  |  | B2
9.43 | ~8 |  |  |  | B3
 |  |  | 25.6 | 54.8 | B4
